The source of these data is patent publication US8748112B2, “Methods of determining cancer cell responsiveness to a notch inhibitory agent” (Trojan Technologies, Ltd., priority 2007, dated 2014).

One data set deals with Colo205 tumors. Put plainly: Colon cancer xenograft model. Particulars: 0.2 ml of 4 mg/ml every other day, Colo205 xenografts. The format is in vivo, female nude mice. As to the method:
High levels of Notch are expressed in colon cancer cells. ANTP/DN-MAML was administered to female nude mice bearing xenografted Colo205 tumors. Injections of 0.2 ml of 4 mg/ml ANTP/DN-MAML protein were administered to the mice every other day. This dose is equivalent to 2 g of ANTP/DN-MAML fusion protein per patient.

A further data set concerns Notch (NICD). Put plainly: Notch inhibition, Western blot of activated Notch (NICD). It counts as cell-based, human. The following applies: MDA-MB231 cells treated for two hours. As to the method:
To investigate the potential role of ANTP/DN-MAML to inhibit Notch signaling activation the high metastatic mammary epithelial cell line MDA-MB231 cell line was treated with the ANTP/DN-MAML fusion protein for two hours. Total protein was extracted from cells using SDS buffer. Total protein concentrations were determined using the BCA protein assay kit. Total protein ([…]) was diluted in 5× sample buffer ([…] Tris-HCl pH 6.8, 500 mM dithiotheitol, 10% SDS, 0.5% bromophenol blue, 50% glycerol), heated at 100° C. and analyzed by SDS-PAGE. Electrophoresis was carried out in running buffer (25 mM Tris HCl, 250 mM glycine, 0.1% SDS) for 60 minutes or until the bromophenol blue had run out of the gel. Separated proteins were transferred to nitrocellulose membrane in ice cold transfer buffer (39 mM glycine, 48 mM Tris HCl) electrophoretically for 90 minutes at 100V. Western blots were probed with the […] in blocking buffer at 4° C. over night with anti-Mouse IgG peroxidase produced in goat […] (Sigma A9917). Nitrocellulose membranes were washed 4 times for five minutes each in TBS-T buffer. […]

The nature of data set [1]: Immunogenicity in immuno-competent mice by ELISA. The format is in vivo. The following applies: intravenous 0.2 ml, 2.5 mg/ml without adjuvant, once per day for 5 days; 2.5 mg per week; monitored over 4 months. How it is done:
The immunogenicity of ANTP/DN-MAML was investigated in immuno-competent mice. Animals were immunized intravenously with ANTP/DN-MAML (0.2 ml, 2.5 mg/ml) without adjuvant, once per day for 5 days. Mice were bled once per week over a 4-month period, and the immune response monitored by ELISA. Blood samples were diluted 1:10, 1:100 and 1:1000 in PBS, and the immune response was monitored by ELISA on native ANTP/DN-MAML (coated at 50 μg/ml) and detected using anti-mouse antibodies. […] This dose is equivalent to 100 mg/kg in humans.
For orientation: An ELISA detects its analyte on a solid surface through an enzyme-linked reagent.

The next data set deals with Breast cancer xenografts. The data set can be described thus: In vivo tumor reduction in breast cancer xenografts. Set-up: species or system mice. The following applies: 4 mg/kg every two days, n=6 per group, vs PBS control. How it is done:
Breast cancer xenografts were established in mice. The mice were divided into two groups, and injected every two days with either PBS as a control, or with 4 mg/kg ANTP/DN-MAML fusion protein (n=6 per group) (FIG. 4A). Control mice treated with PBS developed rapidly growing tumors. The control mice were euthanized after twenty days. […] (FIG. 4B).

The nature of data set [2]: In vivo maximum tolerated dose study. Set-up: species or system mice. How it is done:
ANTP/DN-MAML tail vein administration was started when the mice reached an age of 12 weeks. Mice were continuously monitored for signs of hypoglycemic shock or drug side effects and were sacrificed if body weight loss exceeded 15%. Various dosages were tested starting at 4 mg/kg/day. […] This experiment was terminated by sacrificing the animals three days after injection.

The subject of data set [3] is MDA MB231 xenograft tumor. Put plainly: Penetration into outer, middle and inner core of xenografted mammary tumors (Western blot, immunohistochemistry). The format is in vivo, CD1 Nude mice. The following applies: tail vein injection. As to the method: Purified ANTP/DN-MAML fusion protein was injected into CD1 Nude mice xenografted with MDA MB231 human mammary epithelial breast cancer cells via the tail vein. The mice were perfused for 5 min with phosphate-buffered saline and sacrificed 2 hours following the injection. The tumor was removed and dissected under a stereoscope to separate the outer, middle, and inner core of the tumor. The ANTP/DN-MAML in each core of the tumor was determined by Western blot.
In order to establish the localization of ANTP/DN-MAML within the tumors, immunohistochemistry on the above mammary cancer samples was performed.

The subject of a further data set is MDA-MB231 cells. The data set can be described thus: Cellular localization by immunostaining (nuclear transduction). It counts as cell-based, human. Particulars: 50 μM, two hours, serum free media, anti-His immunostaining. How it is done:
To determine the cellular localization of the ANTP/DN-MAML (TR4) fusion protein, immunostaining on human mammary epithelial breast cancer MDA-MB231 cells was carried out. MDA-MB231 cells were cultured to sub-confluence in Dulbecco's modified Eagle's medium containing 10% calf serum at 37° C. The coverslips with cells attached were washed, and incubated with ANTP/DN-MAML purified fusion protein in serum free media for two hours at a concentration of 50 μM. Cells were washed three times and fixed with 4% paraformaldehyde for 15 minutes. After brief washes, the coverslips were incubated with blocking solution and subsequently with anti-His primary and FITC-conjugated secondary antibody.

Data set [4] can be described thus: Biodistribution by Western blot of organs after intravenous injection. It counts as in vivo, CD1 nude mice. Particulars: 4 mg/kg intravenously via tail vein, 2 hours after injection. As to the method:
To determine whether Antennapedia could be used to deliver the DN-MAML in vivo, CD1 nude mice were injected intravenously via tail vein with 4 mg/kg of the ANTP/DN-MAML fusion protein. The mice were perfused for 5 min with phosphate-buffered saline and sacrificed 2 hours following the injection. The expression of ANTP/DN-MAML in each organ was determined by Western blot analysis. […] As such, the targeted delivery system of the present invention may have wide applications in the administration of therapeutic proteins to the central nervous system.
(In general: Immunoblotting shows a protein as a band on a membrane.)

In the case of “ANTP/DN-MAML: 14.18 KDa fusion protein of antennapedia homeodomain, 62 amino acid DN/MAML sequence and pentahistidine tag (SEQ ID NO.:2)”, in the data set on Colo205 tumors, the “colon cancer cell growth in vivo” value is “reduced colon cancer cell growth in vivo”. In addition, the “downregulation of Notch activation (NICD)” value in the data set with Notch (NICD) is on record as “Downregulation of Notch activation occurred”. In data set [1], the “immune response (ELISA)” value is listed as “does not raise an immune response”. Also, the tumor volume result in the data set on Breast cancer xenografts was “no increase in tumor volume after thirty-two days”. Further, in data set [2] (57 mg/kg/day, tail vein), the “side effects at the maximum tolerated dose” value is “loss of appetite, weight loss and hypoglycemia”. This substance yielded a maximum tolerated dose in data set [2] (tail vein administration, mice aged 12 weeks) of 57 mg/kg/day. In addition, the “detection in outer, middle and inner core of the tumor” value in data set [3] (2 hours, Western blot, vs PBS control) is “detected in the outer, middle and inner core of the tumor”. Further, the “localization within the tumors (immunohistochemistry)” value in data set [3] (MDA MB231 xenograft) is “Intense ANTP/DN-MAML staining within the nucleus of mammary cancer cells”. The cellular localization result with MDA-MB231 cells was “nuclear localization”. Further, in data set [4], the “detection in brain (blood-brain barrier crossing)” value is listed as “detected in the brains”. Further, the “signal in liver, kidney, heart, lung, spleen and brain tissue vs PBS injected mice” value in data set [4] (Western blot) was “significant signal”.
For the substance “ANTP: Trojan peptide; 60 amino acid Drosophila antennapedia homeodomain (SEQ ID NO.:4), used alone as control [reference compound]”, in the data set with Notch (NICD), the “downregulation of Notch activation (NICD)” value was “not in cells treated with ANTP alone”.
